T1: LfXyl43 (GH 43 β-xylosidase/α-L-arabinofuranosidase) (Limosilactobacillus fermentum, UniProt A0ABF7R1E2)
T1 construct: gene LAF_0405; recombinant rLfXyl43, 551 residues, C-terminal 6× histidine tag
T1 sequence (A0ABF7R1E2 1-551): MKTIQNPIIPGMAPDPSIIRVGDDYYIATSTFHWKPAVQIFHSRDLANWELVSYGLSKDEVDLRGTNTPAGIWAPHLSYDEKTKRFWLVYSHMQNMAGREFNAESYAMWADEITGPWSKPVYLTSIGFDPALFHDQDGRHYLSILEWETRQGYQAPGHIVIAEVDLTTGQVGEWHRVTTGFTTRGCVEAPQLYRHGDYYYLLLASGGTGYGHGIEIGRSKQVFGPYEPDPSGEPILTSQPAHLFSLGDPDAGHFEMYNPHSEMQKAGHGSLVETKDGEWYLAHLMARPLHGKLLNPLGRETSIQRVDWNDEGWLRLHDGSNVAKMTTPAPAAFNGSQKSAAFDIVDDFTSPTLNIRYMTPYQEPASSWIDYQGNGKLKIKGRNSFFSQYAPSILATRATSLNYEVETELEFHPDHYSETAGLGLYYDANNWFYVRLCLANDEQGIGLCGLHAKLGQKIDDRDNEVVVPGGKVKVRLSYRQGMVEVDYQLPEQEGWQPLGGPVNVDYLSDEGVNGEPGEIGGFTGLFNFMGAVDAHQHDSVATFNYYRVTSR


How the values were obtained:
[1] = target: T1, LfXyl43 (GH 43 β-xylosidase/α-L-arabinofuranosidase); experiment: specific activity of purified enzyme at […] substrate; type: biochemical
[2] = substrate: OC1OC[C@@H](O[C@@H]2OC[C@@H](O[C@@H]3OC[C@@H](O)[C@H](O)[C@H]3O)[C@H](O)[C@H]2O)[C@H](O)[C@H]1O; experiment: Michaelis-Menten kinetics, DNSA reducing sugar assay (Km); type: biochemical, Limosilactobacillus fermentum
[3] = substrate: OC1OC[C@@H](O[C@@H]2OC[C@@H](O[C@@H]3OC[C@@H](O[C@@H]4OC[C@@H](O)[C@H](O)[C@H]4O)[C@H](O)[C@H]3O)[C@H](O)[C@H]2O)[C@H](O)[C@H]1O; experiment: as above; type: biochemical, Limosilactobacillus fermentum; details: catalytic pocket, Asp15 and Glu188 at the −[…] subsite (predicted)
[4] = substrate: OC1OC[C@@H](O[C@@H]2OC[C@@H](O)[C@H](O)[C@H]2O)[C@H](O)[C@H]1O; experiment: as above; type: biochemical, Limosilactobacillus fermentum; details: catalytic pocket, subsites −[…] and +[…] (predicted)
purified protein [5] = substrate: O=[N+]([O-])c1ccc(O[C@@H]2OC[C@@H](O)[C@H](O)[C@H]2O)cc1; experiment: purified protein; type: biochemical, Limosilactobacillus fermentum; details: catalytic pocket, Asp15, Asp129 and Glu188 (predicted)
purified protein [6] = substrate: O=[N+]([O-])c1ccc(O[C@@H]2O[C@@H](CO)[C@H](O)[C@H]2O)cc1; experiment: purified protein; type: biochemical, Limosilactobacillus fermentum

Row | Specific activity, U/mg [1] | Molecule | Km [2] | Vmax [2] | kcat [2] | kcat/Km [2] | Km [3] | Vmax [3] | kcat [3] | kcat/Km [3] | Km [4] | Vmax [4] | kcat [4] | kcat/Km [4] | Km (purified protein [5]) | Vmax (purified protein [5]) | kcat (purified protein [5]) | Km (purified protein [6]) | Vmax (purified protein [6]) | kcat (purified protein [6]) | kcat/Km (purified protein [6])
1 | 3.8 ± 0.1 U/mg | O=[N+]([O-])c1ccccc1O[C@@H]1OC[C@@H](O)[C@H](O)[C@H]1O [oNPX, o-nitrophenyl-β-D-xylopyranoside] | – | – | – | – | – | – | – | – | – | – | – | – | – | – | – | – | – | – | –
2 | – | LfXyl43 (GH 43 β-xylosidase/α-L-arabinofuranosidase) (Limosilactobacillus fermentum IFO 3956) (protein, recombinant rLfXyl43, 551 residues, C-terminal 6× histidine tag) MKTIQNPIIPGMAPDPSIIRVGDDYYIATSTFHWKPAVQIFHSRDLANWELVSYGLSKDEVDLRGTNTPAGIWAPHLSYDEKTKRFWLVYSHMQNMAGREFNAESYAMWADEITGPWSKPVYLTSIGFDPALFHDQDGRHYLSILEWETRQGYQAPGHIVIAEVDLTTGQVGEWHRVTTGFTTRGCVEAPQLYRHGDYYYLLLASGGTGYGHGIEIGRSKQVFGPYEPDPSGEPILTSQPAHLFSLGDPDAGHFEMYNPHSEMQKAGHGSLVETKDGEWYLAHLMARPLHGKLLNPLGRETSIQRVDWNDEGWLRLHDGSNVAKMTTPAPAAFNGSQKSAAFDIVDDFTSPTLNIRYMTPYQEPASSWIDYQGNGKLKIKGRNSFFSQYAPSILATRATSLNYEVETELEFHPDHYSETAGLGLYYDANNWFYVRLCLANDEQGIGLCGLHAKLGQKIDDRDNEVVVPGGKVKVRLSYRQGMVEVDYQLPEQEGWQPLGGPVNVDYLSDEGVNGEPGEIGGFTGLFNFMGAVDAHQHDSVATFNYYRVTSR | 120.2 mM | 441 µmol/min/mg | 3170 s⁻¹ | 26400 M⁻¹ s⁻¹ | 84.2 mM | 488 µmol/min/mg | 3530 s⁻¹ | 41900 M⁻¹ s⁻¹ | 134.7 mM | 241 µmol/min/mg | 1740 s⁻¹ | 12900 M⁻¹ s⁻¹ | 2.0 mM | 19.7 µmol/min/mg | 142 s⁻¹ | 1.5 mM | 0.4 µmol/min/mg | 2.8 s⁻¹ | 1900 M⁻¹ s⁻¹

From publication PMC11931166, “Heterologous expression and characterization of xylose-tolerant GH 43 family β-xylosidase/α-L-arabinofuranosidase from Limosilactobacillus fermentum and its application in xylan degradation” (Frontiers in Bioengineering and Biotechnology, 2025)
